Results taken from the supplement of paper PMC10065799, “High-throughput profiling of sequence recognition by tyrosine kinases and SH2 domains using bacterial peptide display” (eLife, 2023).

Experiments:
AncSZ = test: phosphorylation enrichment, bacterial display (enrichment ratio); higher = better substrate or ligand; peptides without Tyr show the background
EPHB1 = EPHB1 (UniProt P54762); test: as above
EPHB2 = EPHB2 (UniProt P29323); test: as above
FGFR1 = FGFR1 (UniProt P11362); test: as above
FGFR3 = FGFR3 (UniProt P22607); test: as above
Fer (mouse) = test: as above
Fes = Fes (UniProt P07332); test: as above
Fyn = Fyn (UniProt P06241); test: as above
Hck = Hck (UniProt P08631); test: as above
Jak2 = Jak2 (UniProt O60674); test: as above
MERTK = MERTK (UniProt Q12866); test: as above
c-Abl (mouse) = test: as above
c-Src = test: as above
Grb2 SH2 = Grb2 SH2 (UniProt P62993); test: SH2 binding enrichment of the phosphorylated peptide, bacterial display (enrichment ratio); higher = better substrate or ligand; peptides without Tyr show the background
SHP2-C SH2 = test: as above
c-Src SH2 = test: as above
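For SH2 binding enrichment of the phosphorylated peptide, bacterial display in this document: peptide library displayed on the E. coli surface as eCPX fusions, selected cells deep-sequenced, score is each peptide's frequency after selection divided by its frequency in the input.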
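For phosphorylation enrichment, bacterial display in this document: 11-residue human phosphosite peptides and single-mutation variants displayed on the E. coli surface, counted by deep sequencing, each peptide's frequency after selection divided by its frequency in the unselected input library; frequency after pTyr selection over input frequency; kinase dosed for 20-30% of maximal phosphorylation in three min.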

FGFR3, sequence (P22607 whole entry, looked up): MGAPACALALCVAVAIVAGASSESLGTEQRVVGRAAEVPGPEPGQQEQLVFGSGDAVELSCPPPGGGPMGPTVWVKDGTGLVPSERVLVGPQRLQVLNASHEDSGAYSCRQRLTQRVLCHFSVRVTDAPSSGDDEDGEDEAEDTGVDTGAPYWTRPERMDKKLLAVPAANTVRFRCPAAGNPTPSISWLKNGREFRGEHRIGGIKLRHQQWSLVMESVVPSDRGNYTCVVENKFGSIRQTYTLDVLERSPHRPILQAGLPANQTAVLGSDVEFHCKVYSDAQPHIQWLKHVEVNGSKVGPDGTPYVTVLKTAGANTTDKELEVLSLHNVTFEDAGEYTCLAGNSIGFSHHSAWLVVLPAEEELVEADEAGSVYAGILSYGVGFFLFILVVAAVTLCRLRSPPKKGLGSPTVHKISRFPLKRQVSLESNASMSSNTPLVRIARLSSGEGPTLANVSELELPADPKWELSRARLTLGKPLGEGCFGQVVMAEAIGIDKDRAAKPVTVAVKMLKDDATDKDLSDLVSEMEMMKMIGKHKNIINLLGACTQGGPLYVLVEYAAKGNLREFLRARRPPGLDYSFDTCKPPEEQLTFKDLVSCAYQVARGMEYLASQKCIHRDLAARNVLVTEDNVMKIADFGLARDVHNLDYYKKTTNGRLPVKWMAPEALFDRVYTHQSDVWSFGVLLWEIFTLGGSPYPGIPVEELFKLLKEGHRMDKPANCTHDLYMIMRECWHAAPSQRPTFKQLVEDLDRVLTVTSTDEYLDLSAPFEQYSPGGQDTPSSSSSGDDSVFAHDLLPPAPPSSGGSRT
Hck, sequence (P08631 whole entry, looked up): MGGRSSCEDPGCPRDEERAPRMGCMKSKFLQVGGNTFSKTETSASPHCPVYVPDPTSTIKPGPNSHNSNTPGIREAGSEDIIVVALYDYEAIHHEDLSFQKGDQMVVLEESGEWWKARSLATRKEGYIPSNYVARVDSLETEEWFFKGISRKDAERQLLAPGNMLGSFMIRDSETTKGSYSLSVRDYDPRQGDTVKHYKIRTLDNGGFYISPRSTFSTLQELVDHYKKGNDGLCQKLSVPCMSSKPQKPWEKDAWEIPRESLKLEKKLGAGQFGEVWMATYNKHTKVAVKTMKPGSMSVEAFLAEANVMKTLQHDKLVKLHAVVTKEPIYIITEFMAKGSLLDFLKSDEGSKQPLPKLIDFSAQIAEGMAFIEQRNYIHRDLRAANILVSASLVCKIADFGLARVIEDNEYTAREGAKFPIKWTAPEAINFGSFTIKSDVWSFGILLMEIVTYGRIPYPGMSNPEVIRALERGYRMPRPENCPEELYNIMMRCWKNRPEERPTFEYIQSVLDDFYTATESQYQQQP
Fyn, sequence (P06241 whole entry, looked up): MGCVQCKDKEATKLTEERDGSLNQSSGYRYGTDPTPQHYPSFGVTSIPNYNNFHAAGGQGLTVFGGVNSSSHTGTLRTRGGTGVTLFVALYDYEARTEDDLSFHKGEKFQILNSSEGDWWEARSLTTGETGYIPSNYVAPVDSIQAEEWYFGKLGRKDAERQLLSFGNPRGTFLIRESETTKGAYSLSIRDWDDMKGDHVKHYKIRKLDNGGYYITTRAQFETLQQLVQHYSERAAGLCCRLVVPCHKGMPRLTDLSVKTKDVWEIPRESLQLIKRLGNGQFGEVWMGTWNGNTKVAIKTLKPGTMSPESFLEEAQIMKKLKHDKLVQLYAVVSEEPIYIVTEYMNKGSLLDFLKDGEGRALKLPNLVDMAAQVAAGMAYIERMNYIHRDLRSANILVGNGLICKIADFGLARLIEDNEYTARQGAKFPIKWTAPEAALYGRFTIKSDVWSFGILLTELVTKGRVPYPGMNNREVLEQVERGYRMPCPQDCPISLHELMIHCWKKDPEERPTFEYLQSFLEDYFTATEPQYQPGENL
FGFR1, sequence (P11362 whole entry, looked up): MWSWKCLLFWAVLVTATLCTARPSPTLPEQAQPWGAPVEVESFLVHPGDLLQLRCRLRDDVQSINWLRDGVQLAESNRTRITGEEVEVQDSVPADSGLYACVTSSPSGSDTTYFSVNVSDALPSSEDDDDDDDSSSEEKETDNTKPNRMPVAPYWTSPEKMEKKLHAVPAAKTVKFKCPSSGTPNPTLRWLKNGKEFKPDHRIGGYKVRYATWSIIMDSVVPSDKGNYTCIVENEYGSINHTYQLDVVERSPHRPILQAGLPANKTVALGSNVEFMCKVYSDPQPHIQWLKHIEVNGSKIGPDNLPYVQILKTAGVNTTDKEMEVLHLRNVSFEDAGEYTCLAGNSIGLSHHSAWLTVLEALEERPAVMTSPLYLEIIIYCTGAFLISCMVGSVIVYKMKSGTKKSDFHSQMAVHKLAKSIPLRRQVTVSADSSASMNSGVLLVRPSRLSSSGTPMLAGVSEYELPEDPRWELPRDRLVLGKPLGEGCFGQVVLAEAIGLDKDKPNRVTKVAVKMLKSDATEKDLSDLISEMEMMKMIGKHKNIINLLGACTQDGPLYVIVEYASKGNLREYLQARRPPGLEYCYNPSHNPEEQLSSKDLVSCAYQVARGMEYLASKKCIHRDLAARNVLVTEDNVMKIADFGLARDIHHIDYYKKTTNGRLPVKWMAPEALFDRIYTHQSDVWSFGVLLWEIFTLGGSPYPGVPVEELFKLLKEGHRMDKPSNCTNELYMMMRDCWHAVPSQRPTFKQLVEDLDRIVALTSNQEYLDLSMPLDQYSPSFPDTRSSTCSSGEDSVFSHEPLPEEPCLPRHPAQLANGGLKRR
MERTK, sequence (Q12866 whole entry, looked up): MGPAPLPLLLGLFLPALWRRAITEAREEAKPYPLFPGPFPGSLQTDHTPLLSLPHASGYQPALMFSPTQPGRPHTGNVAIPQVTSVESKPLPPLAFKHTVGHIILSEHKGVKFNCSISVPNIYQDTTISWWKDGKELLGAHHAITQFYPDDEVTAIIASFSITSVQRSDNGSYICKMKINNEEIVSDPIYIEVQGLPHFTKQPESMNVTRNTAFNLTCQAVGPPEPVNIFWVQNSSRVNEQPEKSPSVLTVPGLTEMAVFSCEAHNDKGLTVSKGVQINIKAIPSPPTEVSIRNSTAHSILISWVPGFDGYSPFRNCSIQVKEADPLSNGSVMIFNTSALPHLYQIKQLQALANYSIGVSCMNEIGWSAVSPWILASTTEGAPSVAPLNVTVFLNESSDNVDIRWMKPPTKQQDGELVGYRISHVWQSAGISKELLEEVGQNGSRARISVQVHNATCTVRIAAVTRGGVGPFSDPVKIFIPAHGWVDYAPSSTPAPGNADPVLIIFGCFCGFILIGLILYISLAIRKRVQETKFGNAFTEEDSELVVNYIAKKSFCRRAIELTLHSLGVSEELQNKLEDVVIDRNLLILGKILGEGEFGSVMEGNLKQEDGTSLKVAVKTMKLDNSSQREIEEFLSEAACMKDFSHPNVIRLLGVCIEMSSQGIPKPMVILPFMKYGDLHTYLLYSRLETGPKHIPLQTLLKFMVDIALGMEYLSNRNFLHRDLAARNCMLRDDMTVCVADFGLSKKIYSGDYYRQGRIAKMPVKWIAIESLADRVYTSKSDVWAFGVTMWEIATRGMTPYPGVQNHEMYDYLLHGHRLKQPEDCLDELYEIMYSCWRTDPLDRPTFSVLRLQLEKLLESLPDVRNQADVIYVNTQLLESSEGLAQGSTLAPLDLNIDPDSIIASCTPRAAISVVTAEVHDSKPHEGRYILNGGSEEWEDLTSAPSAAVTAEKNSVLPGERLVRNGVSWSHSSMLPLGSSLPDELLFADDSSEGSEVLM
EPHB2, sequence (P29323 whole entry, looked up): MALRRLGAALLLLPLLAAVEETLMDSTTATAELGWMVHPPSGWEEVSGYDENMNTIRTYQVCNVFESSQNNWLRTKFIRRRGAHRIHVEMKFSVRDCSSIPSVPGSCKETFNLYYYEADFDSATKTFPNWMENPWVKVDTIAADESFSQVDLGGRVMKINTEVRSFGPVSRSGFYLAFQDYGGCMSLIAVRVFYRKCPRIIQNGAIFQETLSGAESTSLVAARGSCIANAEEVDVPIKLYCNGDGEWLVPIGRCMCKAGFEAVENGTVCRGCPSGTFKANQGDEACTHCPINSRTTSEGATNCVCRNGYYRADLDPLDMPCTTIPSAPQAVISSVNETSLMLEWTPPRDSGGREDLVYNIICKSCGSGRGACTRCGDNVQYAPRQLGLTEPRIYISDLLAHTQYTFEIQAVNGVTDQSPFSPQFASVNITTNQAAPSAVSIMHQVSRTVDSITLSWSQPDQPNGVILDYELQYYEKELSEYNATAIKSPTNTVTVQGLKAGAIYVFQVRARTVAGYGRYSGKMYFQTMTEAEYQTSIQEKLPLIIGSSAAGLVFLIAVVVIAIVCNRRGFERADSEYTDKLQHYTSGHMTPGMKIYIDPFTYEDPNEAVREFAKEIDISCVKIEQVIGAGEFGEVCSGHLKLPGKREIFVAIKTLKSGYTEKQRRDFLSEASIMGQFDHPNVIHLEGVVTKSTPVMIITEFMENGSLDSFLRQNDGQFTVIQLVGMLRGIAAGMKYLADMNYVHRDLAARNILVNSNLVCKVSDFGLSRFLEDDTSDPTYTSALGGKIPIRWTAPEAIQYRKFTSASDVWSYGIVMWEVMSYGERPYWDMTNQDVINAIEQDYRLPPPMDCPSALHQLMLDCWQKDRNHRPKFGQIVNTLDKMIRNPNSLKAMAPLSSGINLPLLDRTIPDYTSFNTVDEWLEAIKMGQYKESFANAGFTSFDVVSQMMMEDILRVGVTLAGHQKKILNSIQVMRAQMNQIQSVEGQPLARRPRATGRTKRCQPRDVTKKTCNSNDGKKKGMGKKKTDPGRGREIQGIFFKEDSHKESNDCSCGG

SH2 binding enrichment (Grb2 SH2)	SH2 binding enrichment (SHP2-C SH2)	SH2 binding enrichment (c-Src SH2)	Sequence	phosphorylation enrichment (AncSZ)	phosphorylation enrichment (EPHB1)	phosphorylation enrichment (EPHB2)	phosphorylation enrichment (FGFR1)	phosphorylation enrichment (FGFR3)	phosphorylation enrichment (Fer (mouse))	phosphorylation enrichment (Fes)	phosphorylation enrichment (Fyn)	phosphorylation enrichment (Hck)	phosphorylation enrichment (Jak2)	phosphorylation enrichment (MERTK)	phosphorylation enrichment (c-Abl (mouse))	phosphorylation enrichment (c-Src)
0.851	0.694	0.555	FTYDPYSEEDP [IL2RB_Y387]	1.05	0.564	0.581	0.503	0.822	0.475	1.15	1.28	1.01	0.957	0.389	0.654	1.46
0.7	0.805	0.586	SDFSSYARTSI [TERT_Y949_YF]	0.877	0.546	0.625	0.514	0.613	0.56	0.834	0.488	0.453	0.798	0.477	0.55	0.506
0.827	0.694	1.83	SVVVPYETPEV [TP53_Y220_P222T]	1.42	0.715	0.862	0.569	0.774	0.639	1.41	0.541	0.56	1.14	0.556	0.849	0.505
1.5	2.19	0.74	LNPLFYSLRNK [OR5R1_Y290_I289F]	0.552	0.396	0.537	0.481	0.737	0.75	0.773	0.511	0.475	0.468	0.395	0.363	0.348
0.848	0.647	0.638	TEAEPYFCSLR [NPHS1_Y1138_R1140C_YF]	1.11	0.565	0.615	0.551	0.698	0.466	1.22	0.544	0.576	1.51	0.48	0.814	0.932
1.58	1.09	1.1	LLREWYLPDPY [SIX3_Y225_Q227P]	0.888	0.541	0.473	0.636	0.816	0.409	1.14	0.477	0.484	1.04	0.351	0.969	0.49

Continued, sequence first:

Sequence	SH2 binding enrichment (Grb2 SH2)	SH2 binding enrichment (SHP2-C SH2)	SH2 binding enrichment (c-Src SH2)	phosphorylation enrichment (AncSZ)	phosphorylation enrichment (EPHB1)	phosphorylation enrichment (EPHB2)	phosphorylation enrichment (FGFR1)	phosphorylation enrichment (FGFR3)	phosphorylation enrichment (Fer (mouse))	phosphorylation enrichment (Fes)	phosphorylation enrichment (Fyn)	phosphorylation enrichment (Hck)	phosphorylation enrichment (Jak2)	phosphorylation enrichment (MERTK)	phosphorylation enrichment (c-Abl (mouse))	phosphorylation enrichment (c-Src)
YASALYRQRRS [FGF11_Y162]	0.649	0.34	0.419	0.613	0.433	0.62	0.507	0.58	0.431	0.632	0.687	0.548	0.513	0.535	0.703	0.659
PELINYHQHNS [BTK_Y361]	1	0.767	0.466	0.981	0.666	0.769	1.27	1.02	0.664	1.06	0.648	0.69	1	0.579	0.561	0.68
FPSLPYSPVSS [CAMKK2_Y128_C123Y_YF]	0.857	0.863	0.672	0.789	0.452	0.445	0.539	0.592	2.1	0.707	0.479	0.59	0.526	0.489	0.507	0.457
TLAHKYHGGGG [HBB_Y146_A141T]	0.567	0.67	0.558	0.652	0.46	0.398	0.611	0.494	0.436	0.973	0.497	0.681	1.1	0.577	1.03	0.675
SNMPTYSGHFT [GRIN2A_Y1224]	0.68	0.88	0.414	0.529	0.636	0.602	0.354	0.428	3.39	0.557	1.71	1.47	0.653	0.74	0.457	2.04
RIPFRYPKEFQ [IDS_Y234_H229R]	0.447	0.531	0.414	0.946	0.571	0.646	0.78	1.07	0.627	1.14	0.56	1.07	1.48	0.637	0.998	1.1
KAIMTYVPSFF [ACTN4_Y260_S262P_YF]	0.97	0.836	0.97	0.72	0.61	0.531	0.445	0.542	0.438	0.838	0.499	0.497	0.678	0.487	0.647	0.46
GAPATYEGDAR [CACNA1A_Y1013]	0.893	0.669	0.649	0.58	0.354	0.499	0.543	0.51	0.565	0.666	0.388	0.467	0.497	0.345	0.397	0.368
LKGQVYILVRE [ASS1_Y359_G362V]	0.878	0.896	0.525	1.43	0.682	0.652	0.481	0.982	0.328	1.36	0.343	0.454	1.14	0.375	0.921	0.334
SHSMRYFSTAV [HLA-C_Y31_D33S]	0.752	0.64	0.423	0.719	0.431	0.452	0.657	0.569	0.435	0.763	0.459	0.452	0.625	0.425	0.578	0.441
